Experimental data: article doi:10.1101/2025.02.16.638571 (bioRxiv, 2025)

Target: full-length NiVM G on transfected cells (Nipah virus, Malaysia strain (NiVM), UniProt Q9IH62)
Assay: flow cytometry on cells

B1: mAb LN1F9 (antibody, V domains shown)
VH: EVKLVESGGGLVKPGGSLKLSCAASGFSFRNYAMSWVRQSPEKRLEWVAEVSSGGGYTYYPDTVTGRFTISRDNAKNILYLEMSSLRSEDTAMYYCTRDPDSSGYLAWFAYWGQGTLVTVSA
VL: DILLTQSPASLSASVGETVTITCRASENINSYLAWYQQKQGKSPQLLVYNAKTLAEGVPSRFSGSGSDTQFSLKINTLQPEDFGTYYCQHHSGTPYTFGGGTKLEIK
binding result: binds

B2: mAb S2B10 (antibody, V domains shown)
VH: QMQLQESGPGLVKPSQSLSLTCTVTGYSITSDYAWNWIRQFPRNKLEWMGFITYSGSTSYNPSLKSRISLTRDTSKNQFFLQLSSVTTEDTATYYCARSGANWDWFAYWGQGTLVTVSA
VL: DIQMTQSPASLAVSLGQRATISCRASESVDNYGNSFMHWYQQKPGQPPKLLIYRASKLESGIPARFSGSGSRTDFTLTINPVEADDVATYHCQQSNEDPWTFGGGTKLEIK
binding result: binds

B3: mAb S1E2 (antibody, V domains shown)
VH: QMQLQESGPGLVKPSQSLSLTCSVTGYSITSGYYWNWIRQFSGNKLEWMGYINHDGSKNYNPSLKNRISITRDTSKNQFFLKLNSVTTEDTATYYCARDYGSYYYPMDYWGQGTSVTVSS
VL: EIVLTQSPPIMSASPGEKVTITCSASSSVTFMHWFQQKPGTSPKLWIFSTSNLASGVPARFSGSGSGTSYSLTISRMEAEDAATYYCQQRSSYPFTFGSGTKLEIK
binding result: binds

B4: mAb LN3D3 (antibody, V domains shown)
VH: EVKLEESGPELVKPGASVKMSCKASGYTFTNYVMHWVKQKPGQGLEWIGYVNPYNDGTQYNEKFRDKATLTSDKSSSTVYMELNSLTSEDSAVYYCTRGDYPYWVFEVWGAGTTVTVSS
VL: EIQMTQSPATLSVTPGDSVSLSCRASQSISNNLHWYQQKSHESPRLLIKYASQSISGIPSRFSGSGSGTDFTLSINNLETEDFGMYFCQHSDSWPFTFGSGTKLEIK
binding result: binds
